Data reported in US20250368738A1 (PHILOGEN S P A, published 2025).

B1: AE2P antibody in IgG4 format (antibody, V domains shown)
VH: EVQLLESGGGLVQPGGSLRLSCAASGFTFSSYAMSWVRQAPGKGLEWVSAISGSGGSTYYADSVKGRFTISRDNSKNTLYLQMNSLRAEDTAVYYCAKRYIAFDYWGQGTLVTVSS
VL: DIQMTQSPSSLSASVGDRVTITCRASQSISSYLNWYQQKPGKAPKLLIYAASSLQSGVPSRFSGSGSGTDFTLTISSLQPEDFATYYCQQGGMPPDTFGQGTKVEIKR
notes: unconjugated in flow cytometry; also called AE2P IgG4; IgG4 (AE2P)
B2: TGN1412 IgG4 (antibody, V domains shown)
VH: QVQLVQSGAEVKKPGASVKVSCKASGYTFTSYYIHWVRQAPGQGLEWIGCIYPGNVNTNYNEKFKDRATLTVDTSISTAYMELSRLRSDDTAVYFCTRSHYGLDWNFDVWGQGTTVTVSS
VL: not shown
notes: U.S. Pat. No. 8,709,414'; also called TGN1412 antibody in IgG4 format
B3: anti-human CEA IgG/AE2P (scFv)2 bispecific antibody in IgG-(scFv)2 (2+2) format (format 1, FIG. 13) (bispecific antibody)
heavy: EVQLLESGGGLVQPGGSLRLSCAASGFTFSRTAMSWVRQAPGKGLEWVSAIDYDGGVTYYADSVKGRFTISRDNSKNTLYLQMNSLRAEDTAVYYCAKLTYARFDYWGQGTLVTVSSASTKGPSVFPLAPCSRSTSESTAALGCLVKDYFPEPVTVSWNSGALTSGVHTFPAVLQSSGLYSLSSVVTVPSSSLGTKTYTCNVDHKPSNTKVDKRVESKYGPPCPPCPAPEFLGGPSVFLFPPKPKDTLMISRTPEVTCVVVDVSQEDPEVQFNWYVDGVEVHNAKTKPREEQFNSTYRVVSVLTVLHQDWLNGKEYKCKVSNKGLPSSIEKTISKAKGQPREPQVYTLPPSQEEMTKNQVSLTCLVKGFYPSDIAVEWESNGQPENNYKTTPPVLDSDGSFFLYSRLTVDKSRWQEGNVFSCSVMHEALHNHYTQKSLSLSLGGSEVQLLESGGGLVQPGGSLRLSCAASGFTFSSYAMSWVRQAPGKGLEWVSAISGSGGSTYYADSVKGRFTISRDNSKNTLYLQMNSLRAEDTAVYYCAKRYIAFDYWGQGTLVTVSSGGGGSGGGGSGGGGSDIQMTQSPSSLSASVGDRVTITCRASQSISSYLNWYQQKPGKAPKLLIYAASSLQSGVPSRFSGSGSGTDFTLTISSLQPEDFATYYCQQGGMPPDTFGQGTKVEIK
light: EIVLTQSPGTLSLSPGERATLSCRASQSVSQNHLAWYQQKPGQAPRLLIYLASRRHTGIPDRFSGSGSGTDFTLTISRLEPEDFAVYYCQQSGRVPWTFGQGTKVEIKRTVAAPSVFIFPPSDEQLKSGTASVVCLLNNFYPREAKVQWKVDNALQSGNSQESVTEQDSKDSTYSLSSTLTLSKADYEKHKVYACEVTHQGLSSPVTKSFNRGEC
notes: also called anti-human CEA IgG/anti-CD28 (scFv)2 bispecific antibody

Assays:
[1] = target: T1, murine CD28 on the surface of primary mouse T cells (mouse, UniProt P31041 20-218); assay: flow cytometry on primary mouse T cells, 50 nM antibody
T1 construct: whole, on cells

murine CD28 Fc = target: T2, murine CD28 Fc (mouse, UniProt P31041 20-150); assay: titration ELISA, His6-tagged CD28-ECD on NiNTA plates, FITC-conjugated antibody
T2 construct: also called murine CD28 ECD; mouse CD28 Fc; not shown: His6 tag and Fc part of the murine construct

[2] = target: T3, human CD28 expressed on primary human T cells (human, UniProt P10747 19-220); assay: flow cytometry on primary human T cells, 50 nM antibody
T3 construct: whole, on cells; also called primary human T cells expressing CD28
Procedure: Cells were first blocked for 30 minutes in FACS buffer (PBS, 2% FBS and 2 mM EDTA). […] Zombie near infrared (NIR) was used to discriminate live from dead cells.

[3] = target: T4, human CTLA-4 protein containing His6 Tag (SinoBiological, Cat: 11159-H08H) (human, UniProt P16410 36-162); assay: titration ELISA, His6-tagged human CTLA-4 on NiNTA plates, FITC-conjugated antibody
T4 construct: Bought protein

[4] = target: T5, human CD28-ECD (extracellular domain) recombinant fragment containing a C-terminal Avi tag, His6 tag and Fc … (human, site specifically biotinylated using BirA (Avi tag) in the ELISA of Example 2.1); assay: titration ELISA
T5 construct: also called CD28-Fc; CD28-Fc fusion protein
T5 sequence (chain, as listed by the source limits assumed): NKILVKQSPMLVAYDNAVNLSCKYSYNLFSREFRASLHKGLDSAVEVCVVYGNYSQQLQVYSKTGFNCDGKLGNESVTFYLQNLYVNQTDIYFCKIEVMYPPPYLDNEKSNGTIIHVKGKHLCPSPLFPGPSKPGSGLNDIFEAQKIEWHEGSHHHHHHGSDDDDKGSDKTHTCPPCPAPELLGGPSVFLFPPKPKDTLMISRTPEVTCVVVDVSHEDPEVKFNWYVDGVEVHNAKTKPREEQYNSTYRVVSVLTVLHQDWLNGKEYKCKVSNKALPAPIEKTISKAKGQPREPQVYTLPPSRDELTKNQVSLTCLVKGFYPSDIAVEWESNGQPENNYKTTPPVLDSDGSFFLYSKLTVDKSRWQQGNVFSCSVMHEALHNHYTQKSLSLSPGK

[5] = target: T1, murine CD28 on the surface of primary …; assay: flow cytometry on primary mouse T cells
Procedure: Cells were first blocked for 30 minutes in FACS buffer (PBS, 2% FBS and 2 mM EDTA). […] Zombie NIR was used to discriminate live from dead cells.

Binder | binding result [1] | binding result (murine CD28 Fc) | binding result [2] | binding result [3] | binding result [4] | binding result [5]
B1 | binds | binds | binds | binds | binds | –
B2 | – | no binding | – | no binding | – | no binding (tested: 50 nM)
B3 | binds | – | – | – | – | –
